The text below walks through data of PMC4118869 (PLoS ONE, 2014).

The target in assay [1] is hemagglutinin of A/Brisbane/10/2007 (H3N2), in the influenza virus antigen standard (Influenza A virus A/Brisbane/10/2007 …, UniProt A8W8K8, strain). Briefly: ELISA. Conditions: one partner purified.
Assay [2] addresses recombinant H1-HA (D18-I530), A/California/06/2009 (H1N1)pdm09 (Influenza A virus A/California/06/2009 …, UniProt C3W5S1, strain). The assay can be described thus: SPR. As to conditions: both partners purified.
Assay [3] has as its target recombinant H5-HA, A/Vietnam/1203/2004 (H5N1) (Influenza A virus A/Vietnam/1203/2004 …, UniProt Q5EP31, strain). The assay can be described thus: SPR. As to conditions: both partners purified.
Assay [4] addresses T1, recombinant H2-HA, A/Japan/305/57 (H2N2) (Influenza A virus A/Japan/305/1957 …, UniProt P03451, strain).
T1 construct: source: bought: E-Enzymes (Protein Sciences in the SPR methods)
Briefly: SPR. As to conditions: both partners purified.

Assay [5] concerns the target recombinant H9-HA, A/HongKong/1073/99 (H9N2) (Influenza A virus A/Hong Kong/1073/99 …, UniProt Q9ICY5, strain). The assay can be described thus: SPR. Conditions: both partners purified.
Assay [6] concerns the target recombinant HA1 domain (D18-R344), A/California/06/2009 (H1N1)pdm09 (Influenza A virus A/California/06/2009 …, UniProt C3W5S1, strain). Briefly: SPR. Conditions: both partners purified.
The target in assay [7] is hemagglutinin of A/California/07/2009 (H1N1)pdm09, in the influenza virus antigen standard (Influenza A virus A/California/07/2009 …, UniProt C3W5X2, strain). Briefly: ELISA. As to conditions: one partner purified. Background: An ELISA detects its analyte on a solid surface through an enzyme-linked reagent.
The target of assay [8] is phage displayed HA gene fragment P66-I282 (Influenza A virus A/California/07/2009 …, UniProt C3W5X2). The assay can be described thus: ELISA. Conditions: both partners purified.
The target of assay [9] is phage displayed HA gene fragment L193-K225 (Influenza A virus A/California/07/2009 …, UniProt C3W5X2). Briefly: ELISA. As to conditions: both partners purified.
In assay [10] the target is T2, recombinant H3-HA, A/Brisbane/10/2007 (H3N2) (Influenza A virus A/Brisbane/10/2007 …, UniProt A8W8K8, strain).
T2 construct: source: bought: Protein Sciences
The assay can be described thus: SPR; data not shown: sdAbs on immobilised recombinant H3-HA and H7-HA. As to conditions: both partners purified.

Assay [11] concerns the target T3, recombinant H7-HA, A/Netherlands/219/2003 (H7N7) (Influenza A virus …, UniProt Q6VMK1).
T3 construct: source: bought: Protein Sciences
The description is as above. Conditions: both partners purified.

Assay [12] deals with phage displayed HA gene fragment D363-G478 (Influenza A virus A/California/07/2009 …, UniProt C3W5X2). Briefly: ELISA. Conditions: both partners purified.

B1: R2a-G9 (VHH)
VHH: QVQLVESGGGLVQPGGSLRLSCAASDNIFSFYTMGWYRQSPGKERELVAVIGNGGNTNYADSVKGRFTISRDNGKNKAHLQMNSLKPEDTAVYYCKASGPGGVEVWGQGTQVTVSS
notes: source: E. coli WK6 periplasm, purified (Talon IMAC, Superdex 75 SEC)
In general, Kd refers to a measure of binding affinity in units of concentration. By koff is commonly meant the first-order rate constant of dissociation. Usually kon stands for a measure of how fast the partners come together. Take B1: the binding result in assay [1] is “no binding”; in assay [3] it was “no binding”; in [4], “no binding”; in assay [5], “no binding”; in assay [7] it was “binds”; in assay [8], “binds”. Further, the binding result in assay [9], in assay [10] and in assay [11] was “no binding” each time. Moreover, the Kd in assay [2] stood at 22.1 nM; in assay [6] it was 68.7 nM. Also, the koff in assay [2] was 0.00392 s⁻¹. Moreover, the kon in assay [2] worked out at 177000 M⁻¹ s⁻¹.

B2: R1a-C5 (VHH)
VHH: QVQLVESGGGLVQPGGSLRLSCAASNDIFSFYTMGWYLQAIGKQREPVAVIGNGGNTNYAESVKGRFTISRDGAKNTAYLQMNSLKPEDTAVYYCMASGPGGLNVWGQGTQVTVSS
notes: as for B1
Turning to B2, the binding result in assay [1] was “no binding”; in [7], “binds”; in assay [8] it was “binds”; in assay [9] it was “binds”; in [10] it was “no binding”; in assay [11], “no binding”. Also, the figures for the Kd in assay [2] and in assay [6] were 37.6 nM and 38.4 nM, respectively. Besides, the koff in assay [2] is 0.0206 s⁻¹. The kon in assay [2] came to 548000 M⁻¹ s⁻¹.

B3: R2a-E8 (VHH)
VHH: QLQLVESGGGLVQPGGSLRLSCTASGDIFVMYMIDWYRQAPGKQRELVASIDGRGTPMYADSVKGRFTISRDNAKNTVYLQMNSLKPEDTAVYSCHAKSPLVDNEYWGQGTQVTVSS
notes: as for B1
Regarding B3, the binding result in assay [1] is listed as “no binding”; in assay [3] it was “no binding”; in assay [4], “no binding”; in assay [5], “no binding”; in assay [7], “binds”; in assay [8], “no binding”. In addition, the binding result in [9], in assay [12], in assay [10] and in [11] was “no binding” throughout. For the same molecule, in assay [2], the Kd amounted to 0.79 nM. Also, the dissociation rate constant (koff) in assay [2] turned out to be 0.000148 s⁻¹. Further, the kon in assay [2] was 187000 M⁻¹ s⁻¹.

B4: R2a-B9 (VHH)
VHH: QVQLVESGGGLVQPGGSLRLSCAASGSAFSINAMGWYRQAPGEEREFVAAITAGGNTYYADSAKARFTISRDNAKNMLYLQMNSLKPEDTAMYYCAATKAFGIATITADYELWGQGTQVTVSS
notes: as for B1
For the molecule B4, the binding result in assay [1] is recorded as “no binding”; in [3], “no binding”; in assay [4] it was “no binding”; in [5], “no binding”; in [7] it was “binds”; in [8], “no binding”. Further, the binding result in [9], in assay [12], in [10] and in assay [11] was “no binding” throughout. In addition, the Kd in assay [2] turned out to be 0.16 nM. Further, the koff in assay [2] came to 4.94e-05 s⁻¹. Further, the kon in [2] is 312000 M⁻¹ s⁻¹.

B5: R1a-F5 (VHH)
VHH: QLQLVESGGGLVQVGGSLRLSCAASGFPFDGYAIAWFRQAPGKEREGVSCRASDGNTYYAESLKGRLTMSTDNAKNTVYLQMNSLKPEDTAVYYCAAASWVASLWSPSEYDYWGQGTQVTVSS
notes: as for B1
On to B5, for which the binding result in [1] is “no binding”; in assay [3], “no binding”; in assay [4], “no binding”; in assay [5] it was “no binding”; in assay [7], “binds”; in assay [8], “binds”. The binding result in [9], in assay [12], in assay [10] and in [11] was “no binding” in each case. Besides, the values for the Kd in [2] and in assay [6] were 10 nM and 6.06 nM, respectively. Further, the koff in assay [2] amounted to 0.000414 s⁻¹. For the same molecule, in assay [2], the on-rate constant (kon) came out at 40200 M⁻¹ s⁻¹.

B6: R2a-H9 (VHH)
VHH: QVQLVESGGGLVQPGGSLRLSCAASTNIASFYTMGWYRQTPGQQRDVVAVIGNGGNTNYADSVKGRFTISRDGAKNTAHLQMNSLKPEDTDVYYCKASGPGGVILWGQGTQVTVSS
notes: as for B1
Turning to B6, the binding result in [1] is reported as “no binding”; in assay [3] it was “no binding”; in assay [4], “no binding”; in assay [5], “no binding”; in assay [7], “binds”; in [8], “binds”. Moreover, the binding result in [9], in [10] and in assay [11] was “no binding” each time. In addition, the Kd in assay [2] turned out to be 2.77 nM; in [6], 468 nM. Also, the koff in assay [2] turned out to be 0.000384 s⁻¹. Also, the kon in [2] is 139000 M⁻¹ s⁻¹.

B7: R1a-G5 (VHH)
VHH: QLQLVESGGGLVQPGGSLRLSCAASGSISRIVTMGWYRQASGKERELVAVIGNYGNTNYADSVKGRFTVSRDNAKDTAYLQMNGLNVEDTAIYYCKTSTTTPPYEYWGQGTQVTVSS
notes: as for B1
On to B7, for which the binding result is “no binding” in assay [1]; “no binding” in assay [3]; “no binding” in assay [4]; “no binding” in assay [5]; “binds” in assay [7]; “binds” in [8]. Besides, the binding result in [9], in [12], in assay [10] and in assay [11] was “no binding” in each case. Also, the Kd in assay [2] came to 5.85 nM; in assay [6], 15.6 nM. For the same molecule, the koff in assay [2] was determined as 0.00504 s⁻¹. The kon in [2] worked out at 862000 M⁻¹ s⁻¹.

B8: R1a-F4 (VHH)
VHH: QVQLVESGGGLVQPGGSLRLSCAASGSISRIVTMGWYRQGPGKERELVAVIGNYGNTNYADSVKGRFTVSRDNAKDTAYLQMNNLNVEDTAMYYCKCSTTTPPHEFWGQGTQVTVSS
notes: as for B1
With B8, the binding result is given as “no binding” in assay [1]; “no binding” in assay [3]; “no binding” in assay [4]; “no binding” in [5]; “binds” in [7]; “binds” in assay [8]. The binding result in assay [9], in assay [12], in assay [10] and in assay [11] was “no binding” each time. For the same molecule, the Kd in [2] was 6.46 nM; in [6], 4.74 nM. The koff in assay [2] was determined as 0.0022 s⁻¹. Moreover, in assay [2], the kon turned out to be 340000 M⁻¹ s⁻¹.

B9: R1a-E5 (VHH)
VHH: QLQLVESGGGLVQPGGSLRLSCTASGFSLDNYAIGWFRRAPGEEREGVSFITSTSAVTKYADSVKGRFTISRDNAKNTVYLQMTSLKPEDTAVYYCAGTRWVPTMKADEYNYWGQGTQVTVSS
notes: as for B1
Regarding B9, the binding result in assay [1] is listed as “no binding”; in [3] it was “no binding”; in [4], “no binding”; in assay [5], “no binding”; in assay [7], “binds”; in [8] it was “no binding”. In addition, the binding result in assay [9], in [12], in assay [10] and in assay [11] was “no binding” throughout. Further, in assay [2], the Kd came to 0.79 nM. For the same molecule, the koff in assay [2] came out at 7.61e-05 s⁻¹. In assay [2], the kon stood at 97600 M⁻¹ s⁻¹.
